Measurements published in publication PMC13070007, “TRBC2-targeting antibody–drug conjugates for the treatment of T cell cancers” (Nature cancer, 2025).

How the values were obtained:
[1] = biological target: T1, TRBC2 protein (recombinant) (Homo sapiens, UniProt A0A5B9); assay: SPR; Biacore T200, 25 °C; antibodies captured on protein A/G immobilised on CM5 chips; TRBC1 or TRBC2 protein as analyte, threefold dilutions from 1,000 nM to 4.1 nM, multiple-cycle kinetics; PBS-P (20 mM phosphate pH 7.4, 137 mM NaCl, 2.7 mM KCl, 0.05% P20); 1:1 kinetics binding model; conditions: both partners purified
T1 construct: T cell receptor beta constant 2 (TRBC2), recombinant protein bought from Acro Biosystems; The discussion calls it 'TRBC2 peptide'; see the vendor's data sheet for the catalogue number; also called recombinant TRBC2 protein; TRBC2 peptide; source: bought: Acro Biosystems, cat. no; TR2-H52H3

[2] = biological target: T2, TRBC1 protein (recombinant) (Homo sapiens, UniProt P01850); assay: as above; conditions: both partners purified
T2 construct: T cell receptor beta constant 1 (TRBC1), recombinant protein bought from Acro Biosystems; The discussion calls it 'TRBC1 peptide'; see the vendor's data sheet for the catalogue number; also called recombinant TRBC1 protein; TRBC1 peptide; source: bought: Acro Biosystems, cat. no; TR1-H52H4

[3] = biological target: T3, TRBC1^+ TCR on T cells (Homo sapiens, UniProt P01850); assay: flow cytometry on cells; T cell cancer cell lines stained with anti-TRBC2 antibodies with a mouse IgG2a Fc, then anti-mouse IgG-Alexa Fluor-647; conditions: one partner purified
T3 construct: variable part (TRBV-TRBD-TRBJ) of the beta chain, different in each cell line or T cell; T cell receptor beta constant 1 (TRBC1) as part of the alpha-beta TCR on the cell surface; On cells the beta chain stands in the whole TCR-CD3 complex; also called TRBC1^+ cells; source: endogenous on wild-type Jurkat and H9 cells; normal human T cells from PBMCs

Kd [1]	binding result [2]	binding result [3]	koff [1]	Binder
23 nM	no binding	–	–	YR3-A5 anti-TRBC2 antibody (antibody, V domains shown, also called parent; source: transient transfection of CHO cells (ExpiCHO or CHO-S), purified (HisTrap column or Protein A magnetic beads; SEC); copies: 2 + 2) VH: QVQLVQSGAEVKKPGASVKVSCKASPRGFHGYHMHWVRQAPGQGLEWMGFINPYNDDIQSNERFRGRVTMTSDKSTTTAYMELSSLRSEDTAVYYCARGNGKWGDGAYRFFDFWGQGTLVTVSS VL: DVVMTQSPLSLPVTPGEPASISCRSSQNLVHSNGRTYLQWYLQKPGQSPQLLIYRVSNRFPGVPDRFSGSGSGTDFTLKISRVEAEDVGVYFCSQSTHVPYTFGGGTKVEIK
10 nM	no binding	no binding	0.0013 s⁻¹	JX1.1 anti-TRBC2 antibody (antibody, V domains shown, human VH; murine IgG2a Fc region; human VL; Human variable light and heavy chains fused to a murine IgG2a Fc region; also called clone V30K, S32R, R27Y; source: ExpiCHO or CHO-S cells, purified (HisTrap column or Protein A magnetic beads; SEC); copies: 2 + 2) VH: QVQLVQSGAEVKKPGASVKVSCKASPYGFHGYHMHWVRQAPGQGLEWMGFINPYNDDIQSNERFRGRVTMTSDKSTTTAYMELSSLRSEDTAVYYCARGNGKWGDGAYRFFDFWGQGTLVTVSS VL: DVVMTQSPLSLPVTPGEPASISCRSSQNLKHRNGRTYLQWYLQKPGQSPQLLIYRVSNRFPGVPDRFSGSGSGTDFTLKISRVEAEDVGVYFCSQSTHVPYTFGGGTKVEIK
